The labels stand for the following.
B1: synthetic epitope of Hsc71 (GIPPAPRGVPQIEVTF) (peptide)
peptide: Biotin-GIPPAPRGVPQIEVTF
notes: Amino acids 463-478 of Hsc71, synthesized with N-terminal biotin
B2: PanC (DYWDTSWPLLLFGGGC) (peptide)
peptide: DYWDTSWPLLLFGGGC
modifications: also: radiolabeled with 99mTc, site not given here, unlabeled form also used
notes: also called peptide PanC

Data set [1] relates to prostate cancer (DU-145).
Data set [2] relates to lung cancer (NCI-H460).
The subject of data set [3] is NCI-H460 (lung cancer). Put plainly: Cell internalization of fluorescein labeled peptide (fluorescent microscopy). The format is cell-based. The following applies: 25 μM peptide, one hour at 37C. The protocol: (§1) […], DU-145, and CCD-1070Sk were grown in culture as detailed above. Cells were grown on coverslips in 6 well plates. A 25 μM solution of peptide […]-fluorescein (PanF; SEQ ID NO:12) was prepared in modified Eagle's medium. Cell culture media were replaced with 1.6 mL of peptide-containing medium, and the cells were incubated with peptide for one hour at 37C. Medium was removed and cells were washed three times with PBS. Two mL of 2% formaldehyde in PBS was added to each well, and plates were kept on ice for 15 minutes. Cells were washed with cold PBS three times and rinsed with distilled water. Coverslips were mounted with DAPI containing media and viewed with an Olympus BX51 fluorescent microscope and DP70 digital camera with excitation and emission wavelengths of 490 and 520 nm.

Data set [4] has as its system CCD-1070Sk (fibroblasts). The description is as above. The format is cell-based. The following applies: fibroblasts CCD-1070Sk; 25 μM peptide, one hour at 37C. The protocol: as §1
Data set [5] relates to DU-145 (prostate cancer). The data set is described as above. The format is cell-based. The note with it: prostate cancer DU-145; 25 μM peptide, one hour at 37C. As to the method:
as §1

The target in data set [6] is BSA (Bos taurus, UniProt P02769). In words: Binding competition control: 99m-Tc labeled PanC on BSA coated wells. The following applies: various concentrations of epitope, constant 99m-Tc labeled PanC, 1 hour at room temperature.
For data set [7], the target named is T1, Hsp70 (Homo sapiens, UniProt P0DMV8).
T1 construct: purchased BioVision, Mountain View, Calif
In words: Binding competition between epitope of Hsc71 and Hsp70 for 99m-Tc labeled PanC. The note with it: various concentrations of epitope, constant 99m-Tc labeled PanC, 1 hour at room temperature.

Data set [8] has as its target B2. In words: competition: epitope peptide at various concentrations against Hsp70-coated wells for 99mTc-PanC; competitor Hsp70. The protocol:
A 96 well plate was prepared by coating each well with Hsp70 (BioVision, Mountain View, Calif.) or BSA (control) by adding 0.5 μg/well in 100 µL of PBS and incubating overnight at 4C. The next day, each well was washed 3× with PBS. […] At the end of incubation, each well was washed 3× with PBS.

Data set [9] deals with B1. Put plainly: 99mTc-PanC (20 nM) with 100 uM biotinylated epitope and unlabeled PanC, Neutravidin bead pull-down, gamma counting.

Data on 5 molecules can be found in patent US20100221183A1, “PEPTIDES FOR TREATING AND DIAGNOSING CANCERS AND METHODS FOR USING THE SAME” (priority 2006, published 2010).

Entries after “also recorded” stand apart in the source; their conditions may differ. Where no end group is shown, it is not given here. The star is where a group is joined. Biotin = O=C1N[C@H]2[C@H](CS[C@H]2CCCCC(=O)*)N1

BSA, sequence (P02769 25-607): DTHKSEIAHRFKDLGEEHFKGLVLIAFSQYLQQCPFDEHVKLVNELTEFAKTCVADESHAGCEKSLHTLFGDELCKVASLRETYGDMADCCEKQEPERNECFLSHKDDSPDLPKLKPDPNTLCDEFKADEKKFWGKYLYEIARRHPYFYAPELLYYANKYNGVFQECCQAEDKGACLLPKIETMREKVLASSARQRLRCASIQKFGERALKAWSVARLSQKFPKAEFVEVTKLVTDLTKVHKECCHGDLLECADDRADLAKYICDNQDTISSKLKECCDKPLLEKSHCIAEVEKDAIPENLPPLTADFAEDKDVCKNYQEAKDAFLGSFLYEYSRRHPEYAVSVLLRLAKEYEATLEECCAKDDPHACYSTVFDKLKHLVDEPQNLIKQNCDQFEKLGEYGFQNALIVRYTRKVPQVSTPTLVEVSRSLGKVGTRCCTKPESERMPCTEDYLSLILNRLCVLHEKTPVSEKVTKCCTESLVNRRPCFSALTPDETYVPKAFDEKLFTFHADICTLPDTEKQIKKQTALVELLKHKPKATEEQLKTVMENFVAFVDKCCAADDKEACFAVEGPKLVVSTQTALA
T1 sequence (P0DMV8 whole entry): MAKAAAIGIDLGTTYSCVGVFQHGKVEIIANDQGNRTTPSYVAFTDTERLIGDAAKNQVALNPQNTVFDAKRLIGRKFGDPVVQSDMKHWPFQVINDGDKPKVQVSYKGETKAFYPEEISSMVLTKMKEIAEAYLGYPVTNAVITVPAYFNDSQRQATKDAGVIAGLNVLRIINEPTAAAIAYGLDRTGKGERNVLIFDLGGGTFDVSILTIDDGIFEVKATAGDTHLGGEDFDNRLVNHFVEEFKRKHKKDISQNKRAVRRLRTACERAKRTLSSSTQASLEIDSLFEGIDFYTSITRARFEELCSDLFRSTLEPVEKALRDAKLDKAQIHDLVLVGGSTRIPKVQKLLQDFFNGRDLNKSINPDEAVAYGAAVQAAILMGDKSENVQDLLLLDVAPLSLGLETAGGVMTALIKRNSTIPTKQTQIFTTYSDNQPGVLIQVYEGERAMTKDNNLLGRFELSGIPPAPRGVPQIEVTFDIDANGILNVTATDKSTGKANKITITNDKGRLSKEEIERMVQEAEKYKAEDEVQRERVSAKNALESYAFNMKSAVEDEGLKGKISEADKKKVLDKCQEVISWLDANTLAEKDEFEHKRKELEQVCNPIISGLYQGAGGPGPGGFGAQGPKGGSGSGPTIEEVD

Consider DYWDTSWPLLLFGGGS(KFAKFAK)3 [PanL], for which the “cell death (percent cytotoxicity)” value in data set [1] and in data set [2] was “dose dependent increase in cell death” throughout.

For the molecule “DYWDTSWPLLLFGGGSK (SEQ ID NO:12; PanF) (Flourescein)-amide (DYWDTSWPLLLFGGGSK-NH2; also: fluorescein label, site not given here)”, the “cellular uptake (internalization) by fluorescent microscopic visualization” value is given as “significant cellular uptake; also recorded: Significant internalization” in [3], “significant uptake wasn't seen; also recorded: but not fibroblasts” in [4] and “significant cellular uptake; also recorded: Significant internalization” in [5].

In the case of “GIPPAPRGVPQIEVTF (not fully specified (N-terminus)) [synthetic epitope of Hsc71, Conserved region, amino acids 463-478 of Hsc71]”, the entries for the “suppression of PanC binding to albumin (BSA control) by the epitope” value in data set [6] and in data set [6] (listed as Hsc71 epitope) were “suppressed binding of PanC to albumin approximately equally at all concentrations” and “suppresses binding of PanC to BSA approximately equally at all concentrations”, respectively. In addition, the “suppression of PanC binding to Hsp70 by the epitope” value in data set [7] is reported as “suppressed binding of PanC to Hsp70 in a concentration dependent manner”; in data set [7] (listed as Hsc71 epitope), “interferes with PanC binding to Hsp70 in a concentration dependent manner”.

For B1, in data set [8], the binding result is listed as “binds”.

B2: in [9], the “labeled/unlabeled PanC ratio above which binding saturates” value is above 0.1%.
